Literature values in paper PMC7830601.
Like-named read-outs stand apart in the source and are kept apart here.

How the values were obtained:
ASC CARD (Homo sapiens) = ASC CARD (Homo sapiens) (UniProt Q9ULZ3); experiment: NMR
AIM2 HIN (Homo sapiens) = AIM2 HIN (Homo sapiens) (UniProt O14862); experiment: ITC
ASC PYD (Homo sapiens) [1] = target: ASC PYD (Homo sapiens) (UniProt Q9ULZ3)
ASC PYD (Homo sapiens) [2] = target: ASC PYD (Homo sapiens) (UniProt Q9ULZ3); remark: listed apart in the source

For ASC CARD (from UniProt Q9ULZ3), the Kd (ASC CARD (Homo sapiens)) is listed as 50 µM.
In the case of AIM2 PYD (from UniProt O14862), the Kd (AIM2 HIN (Homo sapiens)) is given as 23.5 µM.
In the case of ASC2 (from UniProt Q8WXC3), the Kd (ASC PYD (Homo sapiens) [1]) is listed as 3.81 µM and the Kd (ASC PYD (Homo sapiens) [2]) is listed as 4.08 µM.
